Results taken from article PMC4883770.

Target: Flag-epitope tagged CncC (Drosophila melanogaster) (UniProt P20482)
Sequence (P20482 whole entry): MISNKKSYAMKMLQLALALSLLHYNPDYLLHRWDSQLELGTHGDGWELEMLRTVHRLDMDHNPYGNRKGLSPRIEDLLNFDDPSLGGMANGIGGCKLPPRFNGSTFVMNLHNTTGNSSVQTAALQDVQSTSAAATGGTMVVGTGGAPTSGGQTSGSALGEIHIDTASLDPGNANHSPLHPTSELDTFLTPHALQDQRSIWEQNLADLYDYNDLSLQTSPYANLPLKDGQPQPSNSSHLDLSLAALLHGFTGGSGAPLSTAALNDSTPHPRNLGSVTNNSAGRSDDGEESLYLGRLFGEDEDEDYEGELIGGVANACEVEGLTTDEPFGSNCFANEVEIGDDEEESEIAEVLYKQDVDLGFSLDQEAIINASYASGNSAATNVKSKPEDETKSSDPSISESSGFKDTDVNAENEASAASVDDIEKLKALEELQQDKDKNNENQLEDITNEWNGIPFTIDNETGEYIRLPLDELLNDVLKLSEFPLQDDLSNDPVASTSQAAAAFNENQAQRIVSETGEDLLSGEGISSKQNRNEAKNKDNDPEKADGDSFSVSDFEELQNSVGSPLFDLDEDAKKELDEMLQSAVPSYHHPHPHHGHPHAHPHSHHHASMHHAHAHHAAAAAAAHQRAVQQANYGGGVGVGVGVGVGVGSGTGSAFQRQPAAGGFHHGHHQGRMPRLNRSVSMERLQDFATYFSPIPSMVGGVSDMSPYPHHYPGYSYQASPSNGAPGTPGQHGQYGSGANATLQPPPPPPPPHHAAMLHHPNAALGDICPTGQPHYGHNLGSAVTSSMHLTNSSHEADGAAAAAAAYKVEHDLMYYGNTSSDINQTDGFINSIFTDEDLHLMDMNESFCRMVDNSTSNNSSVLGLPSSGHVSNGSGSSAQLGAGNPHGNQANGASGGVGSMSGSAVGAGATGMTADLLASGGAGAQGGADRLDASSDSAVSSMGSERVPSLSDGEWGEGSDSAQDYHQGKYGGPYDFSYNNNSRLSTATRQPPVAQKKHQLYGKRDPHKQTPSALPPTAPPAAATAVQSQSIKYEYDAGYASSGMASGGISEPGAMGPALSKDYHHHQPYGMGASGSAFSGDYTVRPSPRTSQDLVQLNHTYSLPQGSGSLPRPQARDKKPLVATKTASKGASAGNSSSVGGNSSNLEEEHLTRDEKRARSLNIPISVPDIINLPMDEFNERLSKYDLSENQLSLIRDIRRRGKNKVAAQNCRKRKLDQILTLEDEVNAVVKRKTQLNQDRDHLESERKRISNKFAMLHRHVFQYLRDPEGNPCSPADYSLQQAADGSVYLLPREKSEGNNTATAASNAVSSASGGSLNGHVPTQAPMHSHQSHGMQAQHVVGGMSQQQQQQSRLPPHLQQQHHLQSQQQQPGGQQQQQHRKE

Fs(1)h-L, the long isoform of Fs(1)h (female sterile (1) homeotic), P13709 1-2038 (natural protein; acetylated lysines (shown with a generic anti-acetyl lysine antibody; residues not named)), sequence (P13709 whole entry, canonical isoform): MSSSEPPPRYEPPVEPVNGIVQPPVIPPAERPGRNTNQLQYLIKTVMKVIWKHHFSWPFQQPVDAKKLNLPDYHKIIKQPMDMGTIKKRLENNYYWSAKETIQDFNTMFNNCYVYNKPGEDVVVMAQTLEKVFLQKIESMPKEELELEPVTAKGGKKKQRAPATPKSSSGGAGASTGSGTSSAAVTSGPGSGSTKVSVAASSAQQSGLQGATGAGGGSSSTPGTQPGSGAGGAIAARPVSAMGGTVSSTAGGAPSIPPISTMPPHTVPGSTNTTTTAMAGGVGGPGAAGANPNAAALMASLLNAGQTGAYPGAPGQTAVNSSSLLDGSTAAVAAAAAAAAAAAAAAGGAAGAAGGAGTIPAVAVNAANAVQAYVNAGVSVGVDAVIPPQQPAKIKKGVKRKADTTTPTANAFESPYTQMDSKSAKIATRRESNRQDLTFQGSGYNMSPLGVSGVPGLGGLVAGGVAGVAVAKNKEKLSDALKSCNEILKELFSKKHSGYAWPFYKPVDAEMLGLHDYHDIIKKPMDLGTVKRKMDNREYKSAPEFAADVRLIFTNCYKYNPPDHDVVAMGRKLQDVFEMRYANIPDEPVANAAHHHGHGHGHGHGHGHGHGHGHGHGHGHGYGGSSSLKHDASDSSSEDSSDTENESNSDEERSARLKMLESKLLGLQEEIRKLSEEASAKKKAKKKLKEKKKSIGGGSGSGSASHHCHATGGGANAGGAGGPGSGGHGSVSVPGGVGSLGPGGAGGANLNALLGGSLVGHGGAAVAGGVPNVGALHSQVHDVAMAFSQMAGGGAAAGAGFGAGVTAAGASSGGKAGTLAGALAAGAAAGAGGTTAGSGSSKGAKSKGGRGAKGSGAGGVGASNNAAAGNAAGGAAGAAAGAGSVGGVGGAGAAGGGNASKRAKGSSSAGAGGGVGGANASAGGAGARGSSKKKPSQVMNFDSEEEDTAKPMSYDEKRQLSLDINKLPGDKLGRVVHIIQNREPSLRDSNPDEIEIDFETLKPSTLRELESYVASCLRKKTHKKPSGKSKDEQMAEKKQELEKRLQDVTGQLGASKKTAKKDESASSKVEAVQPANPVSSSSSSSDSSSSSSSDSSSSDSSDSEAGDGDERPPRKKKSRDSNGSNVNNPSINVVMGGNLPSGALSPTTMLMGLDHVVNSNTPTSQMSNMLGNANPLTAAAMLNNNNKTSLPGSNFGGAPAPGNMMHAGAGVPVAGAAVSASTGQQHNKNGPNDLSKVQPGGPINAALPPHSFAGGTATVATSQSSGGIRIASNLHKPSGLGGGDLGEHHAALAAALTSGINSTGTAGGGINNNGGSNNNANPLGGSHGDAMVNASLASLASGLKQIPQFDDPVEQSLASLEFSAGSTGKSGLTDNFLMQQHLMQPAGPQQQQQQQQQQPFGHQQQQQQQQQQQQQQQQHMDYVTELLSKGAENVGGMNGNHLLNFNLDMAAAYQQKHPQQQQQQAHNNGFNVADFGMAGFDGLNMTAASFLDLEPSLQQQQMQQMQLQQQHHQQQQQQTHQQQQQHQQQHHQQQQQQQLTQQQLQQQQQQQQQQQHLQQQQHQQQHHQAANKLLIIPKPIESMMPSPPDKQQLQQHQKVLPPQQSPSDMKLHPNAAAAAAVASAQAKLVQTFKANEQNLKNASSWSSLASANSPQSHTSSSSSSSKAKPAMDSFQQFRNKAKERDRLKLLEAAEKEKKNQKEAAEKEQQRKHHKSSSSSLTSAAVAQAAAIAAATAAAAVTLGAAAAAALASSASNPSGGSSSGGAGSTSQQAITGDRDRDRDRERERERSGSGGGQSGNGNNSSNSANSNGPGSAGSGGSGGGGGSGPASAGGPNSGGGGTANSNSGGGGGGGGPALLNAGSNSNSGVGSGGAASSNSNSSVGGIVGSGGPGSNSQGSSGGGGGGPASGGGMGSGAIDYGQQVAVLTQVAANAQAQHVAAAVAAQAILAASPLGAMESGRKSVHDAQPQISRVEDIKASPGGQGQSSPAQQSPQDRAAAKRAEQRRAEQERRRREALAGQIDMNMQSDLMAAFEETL

- ARE-fluc reporter activity in S2 cells treated with 1μM JQ1 for 24 hrs, fold change relative to controls: 6.5 fold
Substance: Fs(1)h-L, the long isoform of Fs(1)h (female sterile (1) homeotic), P13709 1-2038 (natural protein; acetylated lysines (shown with a generic anti-acetyl lysine antibody; residues not named))
